Data reported in US20100136030A1 (published 2010).

T1: murine OX40 (form not stated) (mouse, UniProt P47741 20-211, limits assumed)
T1 sequence (looked up): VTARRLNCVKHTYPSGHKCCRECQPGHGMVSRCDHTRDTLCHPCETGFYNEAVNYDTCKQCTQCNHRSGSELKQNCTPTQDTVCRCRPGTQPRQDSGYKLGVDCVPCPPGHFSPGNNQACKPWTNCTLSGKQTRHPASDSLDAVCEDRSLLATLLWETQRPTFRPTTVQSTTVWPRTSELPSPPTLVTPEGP

T2: human OX40 (form used in the assay not stated) (human, UniProt P43489 29-214, limits assumed)
T2 sequence (looked up): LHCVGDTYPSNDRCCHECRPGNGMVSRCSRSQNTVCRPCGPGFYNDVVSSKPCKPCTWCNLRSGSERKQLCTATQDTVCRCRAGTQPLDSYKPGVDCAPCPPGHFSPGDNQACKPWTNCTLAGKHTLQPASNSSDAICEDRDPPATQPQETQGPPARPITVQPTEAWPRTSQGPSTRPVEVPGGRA


Tests used:
[1] = target: human OX40 receptor (CD134), full length, on the cell surface (human) (UniProt P43489); test: cell-based or functional assay
[2] = target: T1, murine OX40 (form not stated); test: not described (observation cited in Example 8)
[3] = target: T2, human OX40 (form used in the assay not …); test: OX40 binding titration with OD readout (assay format and form of OX40 not described); x axis 'Log concentration, µg/ml Fab'
[4] = target: T2, human OX40 (form used in the assay not …); test: Biacore, format not described

| Molecule | Kd [4] | koff [4] | kon [4] | also measured |
| --- | --- | --- | --- | --- |
| OX40 ligand (OX40L) on transfected mouse L fibroblasts |  |  |  | CMP Mean (n: 3), proliferation, Th17 cells + OX40L L-cells [1]: 66000 CPM; IFN-γ Conc (pg/ml), Th1 cells + OX40L L-cells [1]: 33000 pg/mL; IL2 (pg/ml), OX40-Hut-78 + OX40L-L-cells, no antibody [1]: 138 pg/mL; IL13 (pg/ml), OX40-Hut-78 + OX40L-L-cells, no antibody [1]: 620 pg/mL; IL-17 Conc (pg/ml), TH-17, CD4+ cells/OX40L L-cells [1]: 2260 pg/mL; Survivin expression (%), Th17 cells + OX40L L-cells [1]: 49%; TH17 Survival (%), Th17 + OX40L-L-cells [1]: 39.2%; Th1 Survival (%), naïve CD4+ T-cells + OX40L L-cells [1]: 65.9%; Th17 proliferation, fold against culture without OX40L costimulation [1]: 4 fold; Th-17 Survival (%), Th17 cells + OX40L L-cells [1]: 84.3% |
| humanized anti-OX40 antibody A10(TH)hu336F (antibody, V domains shown, also called humanized clone A10(TH)hu336F; 'humanized' A10 molecule) VH: QVQLVQSGAEVKKPGASVKVSCKASGYTFTSYWMHWVRQAPGQGLEWMGEIHPKSGNSNYNEKFKGRVTMTRDTSTSTVYMELSSLRSEDTAVYYCARGPEYSNFWFAYWGQGTLVTVSS VL: DIVLTQSPTSLAVSLGQRATISCKASQTVDYDGDSYMHWYQQKPGQPPKLLIYAASNLESGVPDRFSGSGSGTDFTLTISSLQAEDVAVYYCHQSNEDPWTFGQGTKVEIK |  |  |  | binding result [2]: no binding; EC50 (read off the curve) [3]: ~9 ng/mL |
| humanized A10 whole antibody F (A10 LC (TH) hu 336 / A10 humanized) (antibody, V domains shown, also called A10-F; humanized variant A10-F) VH: QVQLVQSGAEVKKPGASVKVSCKASGYTFTSYWMHWVRQAPGQGLEWMGEIHPKSGNSNYNEKFKGRVTMTRDTSTSTVYMELSSLRSEDTAVYYCARGPEYSNFWFAYWGQGTLVTVSS VL: DIVLTQSPTSLAVSLGQRATISCKASQTVDYDGDSYMHWYQQKPGQPPKLLIYAASNLESGVPDRFSGSGSGTDFTLTISSLQAEDVAVYYCHQSNEDPWTFGQGTKVEIK | 1.12 nM | 0.000158 s⁻¹ | 141000 M⁻¹ s⁻¹ |  |
| humanized A10 whole antibody C (A10 LC (TH) hu 336 / A10 L70) (antibody, V domains shown) VH: QVQLVQSGAEVKKPGASVKVSCKASGYTFTSYWMHWVRQAPGQGLEWMGEIHPKSGNSNYNEKFKGRVTLTRDTSTSTVYMELSSLRSEDTAVYYCARGPEYSNFWFAYWGQGTLVTVSS VL: DIVMTQSPDSLAVSLGERATINCKASQTVDYDGDSYMHWYQQKPGQPPKLLIYAASNLESGVPDRFSGSGSGTDFTLTISSLQAEDVAVYYCHQSNEDPWTFGQGTKVEIK | 1.44 nM | 0.000151 s⁻¹ | 116000 M⁻¹ s⁻¹ |  |
| humanized A10 whole antibody E (A10 LC (SN) / A10 humanized) (antibody, V domains shown) VH: QVQLVQSGAEVKKPGASVKVSCKASGYTFTSYWMHWVRQAPGQGLEWMGEIHPKSGNSNYNEKFKGRVTMTRDTSTSTVYMELSSLRSEDTAVYYCARGPEYSNFWFAYWGQGTLVTVSS VL: DIVMTQSPDSLAVSLGERATINCKASQSVDYDGDSYMNWYQQKPGQPPKLLIYAASNLESGVPDRFSGSGSGTDFTLTISSLQAEDVAVYYCHQSNEDPWTFGQGTKVEIK | 1.25 nM | 0.000191 s⁻¹ | 151000 M⁻¹ s⁻¹ |  |
| humanized A10 whole antibody D (A10 LC (SH) / A10 humanized) (antibody, V domains shown, also called A10-D; A10 D) VH: QVQLVQSGAEVKKPGASVKVSCKASGYTFTSYWMHWVRQAPGQGLEWMGEIHPKSGNSNYNEKFKGRVTMTRDTSTSTVYMELSSLRSEDTAVYYCARGPEYSNFWFAYWGQGTLVTVSS VL: DIVMTQSPDSLAVSLGERATINCKASQSVDYDGDSYMHWYQQKPGQPPKLLIYAASNLESGVPDRFSGSGSGTDFTLTISSLQAEDVAVYYCHQSNEDPWTFGQGTKVEIK | 1.21 nM | 0.00017 s⁻¹ | 140000 M⁻¹ s⁻¹ |  |
| humanized A10 whole antibody A (A10 LC (SH) / A10 L70) (antibody, V domains shown) VH: QVQLVQSGAEVKKPGASVKVSCKASGYTFTSYWMHWVRQAPGQGLEWMGEIHPKSGNSNYNEKFKGRVTLTRDTSTSTVYMELSSLRSEDTAVYYCARGPEYSNFWFAYWGQGTLVTVSS VL: DIVMTQSPDSLAVSLGERATINCKASQSVDYDGDSYMHWYQQKPGQPPKLLIYAASNLESGVPDRFSGSGSGTDFTLTISSLQAEDVAVYYCHQSNEDPWTFGQGTKVEIK | 1.38 nM | 0.000179 s⁻¹ | 131000 M⁻¹ s⁻¹ |  |
| humanized A10 whole antibody B (A10 LC (SN) / A10 L70) (antibody, V domains shown) VH: QVQLVQSGAEVKKPGASVKVSCKASGYTFTSYWMHWVRQAPGQGLEWMGEIHPKSGNSNYNEKFKGRVTLTRDTSTSTVYMELSSLRSEDTAVYYCARGPEYSNFWFAYWGQGTLVTVSS VL: DIVMTQSPDSLAVSLGERATINCKASQSVDYDGDSYMNWYQQKPGQPPKLLIYAASNLESGVPDRFSGSGSGTDFTLTISSLQAEDVAVYYCHQSNEDPWTFGQGTKVEIK | 0.94 nM | 0.000156 s⁻¹ | 170000 M⁻¹ s⁻¹ |  |
